Assay [1] addresses T1, Flag-UBE2O-TwinStrep (purified full-length human UBE2O, wild type) (human, UniProt Q9C0C9 1-1292).
T1 construct: UBE2O, human, full-length WT in N-terminal Flag-tagged and C-terminal TwinStrep-tagged pLV vector; also called Flag-UBE2O-TS; Flag-UBE2O-WT-TwinStrep; source: Expi293F, transfected, purified (Strep-Tactin XT, Superdex 200); not shown: Flag, N-terminal, kept; TwinStrep, C-terminal, kept
T1 sequence (looked up): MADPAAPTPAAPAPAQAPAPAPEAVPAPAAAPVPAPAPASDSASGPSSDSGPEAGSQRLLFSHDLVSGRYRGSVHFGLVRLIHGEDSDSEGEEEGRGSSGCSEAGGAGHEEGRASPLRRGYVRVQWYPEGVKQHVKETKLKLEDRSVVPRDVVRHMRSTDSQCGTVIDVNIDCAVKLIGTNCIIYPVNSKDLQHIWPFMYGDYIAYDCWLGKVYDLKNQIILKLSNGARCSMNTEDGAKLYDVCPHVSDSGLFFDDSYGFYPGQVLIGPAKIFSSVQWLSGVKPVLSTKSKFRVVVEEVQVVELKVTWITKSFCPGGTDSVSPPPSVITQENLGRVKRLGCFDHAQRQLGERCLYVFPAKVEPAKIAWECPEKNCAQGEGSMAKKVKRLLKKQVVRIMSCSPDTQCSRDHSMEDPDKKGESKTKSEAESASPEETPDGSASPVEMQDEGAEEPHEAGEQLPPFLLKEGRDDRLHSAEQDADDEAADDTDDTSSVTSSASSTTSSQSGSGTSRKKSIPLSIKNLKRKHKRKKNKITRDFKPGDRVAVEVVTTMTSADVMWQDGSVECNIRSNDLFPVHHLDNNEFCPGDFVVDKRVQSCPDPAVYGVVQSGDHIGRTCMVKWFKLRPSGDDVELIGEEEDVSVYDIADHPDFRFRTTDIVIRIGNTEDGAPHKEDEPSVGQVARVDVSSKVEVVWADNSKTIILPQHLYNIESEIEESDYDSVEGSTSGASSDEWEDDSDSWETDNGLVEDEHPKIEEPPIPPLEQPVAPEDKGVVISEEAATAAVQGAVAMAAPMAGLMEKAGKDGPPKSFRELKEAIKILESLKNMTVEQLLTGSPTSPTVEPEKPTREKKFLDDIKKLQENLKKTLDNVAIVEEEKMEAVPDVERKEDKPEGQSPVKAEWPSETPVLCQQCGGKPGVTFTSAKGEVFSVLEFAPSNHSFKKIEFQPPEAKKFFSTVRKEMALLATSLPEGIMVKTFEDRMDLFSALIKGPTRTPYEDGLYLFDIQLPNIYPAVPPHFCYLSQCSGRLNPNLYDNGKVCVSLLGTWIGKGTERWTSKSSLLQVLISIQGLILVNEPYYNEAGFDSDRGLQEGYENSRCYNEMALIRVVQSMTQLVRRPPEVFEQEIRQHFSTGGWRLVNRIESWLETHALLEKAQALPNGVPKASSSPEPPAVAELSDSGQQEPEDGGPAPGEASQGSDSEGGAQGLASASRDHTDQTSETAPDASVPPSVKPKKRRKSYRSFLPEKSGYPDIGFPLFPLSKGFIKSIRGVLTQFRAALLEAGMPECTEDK
The assay is described as follows: pull-down; 0.1 μM purified Flag-UBE2O-TS mixed with 0.1 μM purified CTNNA1-Myc in lysis buffer, captured on anti-c-Myc magnetic beads, 4 °C, 1.5 h, immunoblot. To be noted: both partners purified. (In general: Immunoblotting shows a protein as a band on a membrane.)

Assay [2] deals with T1, Flag-UBE2O-TwinStrep (purified …). The assay is described as follows: pull-down; 0.1 μM CTNNA1-V5 pre-incubated overnight at 4 °C with 0, 25 or 50 nM His-GST-β-catenin, captured on BSA-blocked V5-Trap beads, washed, then 0.1 μM Flag-UBE2O-TS for 1.5 h at 4 °C, immunoblot. To be noted: both partners purified.

The results in this text go back to article PMC12635394, “UBE2O-mediated ubiquitylation directs cytoplasmic CTNNA1 to promote cell-to-ECM adhesions” (EMBO Reports, 2025).

B1: CTNNA1-Myc (purified mouse CTNNA1 with C-terminal Myc tag) (natural protein, UniProt P26231 1-906, looked up)
chain: MTAVHAGNINFKWDPKSLEIRTLAVERLLEPLVTQVTTLVNTNSKGPSNKKRGRSKKAHVLAASVEQATENFLEKGDKIAKESQFLKEELVVAVEDVRKQGDLMKSAAGEFADDPCSSVKRGNMVRAARALLSAVTRLLILADMADVYKLLVQLKVVEDGILKLRNAGNEQDLGIQYKALKPEVDKLNIMAAKRQQELKDVGNRDQMAAARGILQKNVPILYTASQACLQHPDVAAYKANRDLIYKQLQQAVTGISNAAQATASDDAAQHQGGSGGELAYALNNFDKQIIVDPLSFSEERFRPSLEERLESIISGAALMADSSCTRDDRRERIVAECNAVRQALQDLLSEYMGNAGRKERSDALNSAIDKMTKKTRDLRRQLRKAVMDHVSDSFLETNVPLLVLIEAAKNGNEKEVKEYAQVFREHANKLIEVANLACSISNNEEGVKLVRMSASQLEALCPQVINAALALAAKPQSKLAQENMDLFKEQWEKQVRVLTDAVDDITSIDDFLAVSENHILEDVNKCVIALQEKDVDGLDRTAGAIRGRAARVIHVVTSEMDNYEPGVYTEKVLEATKLLSNTVMPRFTEQVEAAVEALSSDPAQPMDENEFIDASRLVYDGIRDIRKAVLMIRTPEELDDSDFETEDFDVRSRTSVQTEDDQLIAGQSARAIMAQLPQEQKAKIAEQVASFQEEKSKLDAEVSKWDDSGNDIIVLAKQMCMIMMEMTDFTRGKGPLKNTSDVISAAKKIAEAGSRMDKLGRTIADHCPDSACKQDLLAYLQRIALYCHQLNICSKVKAEVQNLGGELVVSGVDSAMSLIQAAKNLMNAVVQTVKASYVASTKYQKSQGMASLNLPAVSWKMKAPEKKPLVKREKQDETQTKIKRASQKKHVNPVQALSEFKAMDSI
notes: αE-catenin (CTNNA1), mouse; full-length Ctnna1 in C-terminal Myc-tagged pGEX-6P-1; also called mCTNNA1-Myc; pGEX-6P-1-CTNNA1-Myc; source: E. coli BL21 (DE3), purified (glutathione resin, GST removed with PreScission protease); not shown: Myc, C-terminal, kept
For B1, in assay [1], the binding result is “binds”.

B2: CTNNA1-V5 (purified mouse CTNNA1 with C-terminal V5 tag) (natural protein, UniProt P26231 1-906, looked up)
chain: MTAVHAGNINFKWDPKSLEIRTLAVERLLEPLVTQVTTLVNTNSKGPSNKKRGRSKKAHVLAASVEQATENFLEKGDKIAKESQFLKEELVVAVEDVRKQGDLMKSAAGEFADDPCSSVKRGNMVRAARALLSAVTRLLILADMADVYKLLVQLKVVEDGILKLRNAGNEQDLGIQYKALKPEVDKLNIMAAKRQQELKDVGNRDQMAAARGILQKNVPILYTASQACLQHPDVAAYKANRDLIYKQLQQAVTGISNAAQATASDDAAQHQGGSGGELAYALNNFDKQIIVDPLSFSEERFRPSLEERLESIISGAALMADSSCTRDDRRERIVAECNAVRQALQDLLSEYMGNAGRKERSDALNSAIDKMTKKTRDLRRQLRKAVMDHVSDSFLETNVPLLVLIEAAKNGNEKEVKEYAQVFREHANKLIEVANLACSISNNEEGVKLVRMSASQLEALCPQVINAALALAAKPQSKLAQENMDLFKEQWEKQVRVLTDAVDDITSIDDFLAVSENHILEDVNKCVIALQEKDVDGLDRTAGAIRGRAARVIHVVTSEMDNYEPGVYTEKVLEATKLLSNTVMPRFTEQVEAAVEALSSDPAQPMDENEFIDASRLVYDGIRDIRKAVLMIRTPEELDDSDFETEDFDVRSRTSVQTEDDQLIAGQSARAIMAQLPQEQKAKIAEQVASFQEEKSKLDAEVSKWDDSGNDIIVLAKQMCMIMMEMTDFTRGKGPLKNTSDVISAAKKIAEAGSRMDKLGRTIADHCPDSACKQDLLAYLQRIALYCHQLNICSKVKAEVQNLGGELVVSGVDSAMSLIQAAKNLMNAVVQTVKASYVASTKYQKSQGMASLNLPAVSWKMKAPEKKPLVKREKQDETQTKIKRASQKKHVNPVQALSEFKAMDSI
notes: αE-catenin (CTNNA1), mouse; full-length Ctnna1 in C-terminal V5-tagged pGEX-6P-1; As the unmodified 'CTNNA1' bait it went through the ubiquitylation reaction without ATP before capture on V5-Trap; also called mCTNNA1-V5; CTNNA1 bait; source: E. coli BL21 (DE3), purified (glutathione resin, GST removed with PreScission protease); not shown: V5, C-terminal, kept
Take B2: the binding result in assay [2] is “binds”.
